The record followed here is the supplement of paper PMC9112550, “Optimization of the antimicrobial peptide Bac7 by deep mutational scanning” (BMC Biology, 2022).
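Note: peptides expressed intracellularly from a pBAD plasmid library in pooled LB shake-flask culture, induced with 0.3% L-arabinose, DNA abundance read by NGS, three biological replicates, DESeq2 with apeglm shrinkage.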

The subject of the data set is Escherichia coli TOP10. The data set is described as follows: shrunken log2 fold change of peptide-encoding DNA abundance (4.5 h post-induction vs induction); higher = less antimicrobial activity (less host growth inhibition). Conditions: time post-induction: 4.5 h; library: site-saturation at positions 5, 18, 19, 20.
As for RRIRQRPPRLPRPRPRPQEKPRP, the “shrunken log2 fold change” value is 0.0313.

RRIRQRPPRLPRPRPRPCKFPRP: the “shrunken log2 fold change” value was -0.194.

Take RRIRFRPPRLPRPRPRPCISPRP: the “shrunken log2 fold change” value was -0.068.

As to RRIRDRPPRLPRPRPRPMMMPRP, the “shrunken log2 fold change” value is -0.0648.

On to RRIRMRPPRLPRPRPRPMICPRP, for which the “shrunken log2 fold change” value was -0.0412.

For RRIRARPPRLPRPRPRPHLKPRP, the “shrunken log2 fold change” value came out at 0.01.

Take RRIRWRPPRLPRPRPRPAGDPRP: the “shrunken log2 fold change” value was 0.363.

On to RRIRLRPPRLPRPRPRPTQIPRP, for which the “shrunken log2 fold change” value turned out to be 0.14.

Turning to RRIRERPPRLPRPRPRPLRTPRP, the “shrunken log2 fold change” value worked out at 0.00359.

Regarding RRIRFRPPRLPRPRPRPQYKPRP, the “shrunken log2 fold change” value is -0.755.

As for RRIRNRPPRLPRPRPRPDWIPRP, the “shrunken log2 fold change” value is 0.0186.

Regarding RRIRLRPPRLPRPRPRPSQVPRP, the “shrunken log2 fold change” value was -0.573.

In the case of RRIRKRPPRLPRPRPRPCVQPRP, the “shrunken log2 fold change” value is -0.038.

For the sequence RRIRERPPRLPRPRPRPNHYPRP, the “shrunken log2 fold change” value is -1.57.

For the sequence RRIRYRPPRLPRPRPRPNSKPRP, the “shrunken log2 fold change” value was -0.875.

On to RRIRLRPPRLPRPRPRPRMCPRP, for which the “shrunken log2 fold change” value is -0.0246.

Take RRIRGRPPRLPRPRPRPTQMPRP: the “shrunken log2 fold change” value was determined as 0.924.

In the case of RRIRARPPRLPRPRPRPLPKPRP, the “shrunken log2 fold change” value was determined as 0.748.

For the sequence RRIRSRPPRLPRPRPRPQREPRP, the “shrunken log2 fold change” value was -0.019.

Take RRIRTRPPRLPRPRPRPLHMPRP: the “shrunken log2 fold change” value was -0.369.

RRIRYRPPRLPRPRPRPHPAPRP: the “shrunken log2 fold change” value is -0.333.

RRIRERPPRLPRPRPRPILEPRP: the “shrunken log2 fold change” value is -0.0533.

As to RRIRPRPPRLPRPRPRPLVTPRP, the “shrunken log2 fold change” value was -0.302.

As to RRIRERPPRLPRPRPRPAMSPRP, the “shrunken log2 fold change” value is -0.0829.

Turning to RRIRCRPPRLPRPRPRPAMQPRP, the “shrunken log2 fold change” value was determined as 0.0643.

For RRIRFRPPRLPRPRPRPCRNPRP, the “shrunken log2 fold change” value was -0.0376.

As to RRIRVRPPRLPRPRPRPHLYPRP, the “shrunken log2 fold change” value is -0.309.

With RRIRWRPPRLPRPRPRPDSQPRP, the “shrunken log2 fold change” value is -0.0844.

For the sequence RRIRKRPPRLPRPRPRPREEPRP, the “shrunken log2 fold change” value worked out at 1.2.

As to RRIRMRPPRLPRPRPRPTQCPRP, the “shrunken log2 fold change” value came to 0.00706.

With RRIRWRPPRLPRPRPRPIHIPRP, the “shrunken log2 fold change” value was -0.694.

Regarding RRIRCRPPRLPRPRPRPAHYPRP, the “shrunken log2 fold change” value is -0.127.

RRIRMRPPRLPRPRPRPFSVPRP: the “shrunken log2 fold change” value is -0.0472.

For the sequence RRIRMRPPRLPRPRPRPGWQPRP, the “shrunken log2 fold change” value is -0.032.

Turning to RRIRQRPPRLPRPRPRPVCQPRP, the “shrunken log2 fold change” value is -0.0856.

Regarding RRIRDRPPRLPRPRPRPDELPRP, the “shrunken log2 fold change” value turned out to be 0.414.

As to RRIRIRPPRLPRPRPRPCPMPRP, the “shrunken log2 fold change” value was -0.367.

Take RRIRDRPPRLPRPRPRPTFHPRP: the “shrunken log2 fold change” value was -0.148.

Consider RRIRERPPRLPRPRPRPGNFPRP, for which the “shrunken log2 fold change” value was -0.0564.

Consider RRIRFRPPRLPRPRPRPLWQPRP, for which the “shrunken log2 fold change” value is -0.308.

For the sequence RRIRKRPPRLPRPRPRPWFWPRP, the “shrunken log2 fold change” value was found to be 0.442.

For RRIRERPPRLPRPRPRPPMEPRP, the “shrunken log2 fold change” value is -0.0809.

Turning to RRIRERPPRLPRPRPRPAMAPRP, the “shrunken log2 fold change” value was 0.631.

Take RRIRSRPPRLPRPRPRPLHGPRP: the “shrunken log2 fold change” value was 0.0705.

Take RRIRNRPPRLPRPRPRPTIHPRP: the “shrunken log2 fold change” value was -0.46.

Consider RRIRDRPPRLPRPRPRPTENPRP, for which the “shrunken log2 fold change” value turned out to be 0.277.

Consider RRIRMRPPRLPRPRPRPTITPRP, for which the “shrunken log2 fold change” value was found to be 0.114.

As for RRIRCRPPRLPRPRPRPDTPPRP, the “shrunken log2 fold change” value turned out to be 0.0764.

In the case of RRIRYRPPRLPRPRPRPVLFPRP, the “shrunken log2 fold change” value was -0.598.

As to RRIRGRPPRLPRPRPRPIREPRP, the “shrunken log2 fold change” value was -0.0123.

For RRIRDRPPRLPRPRPRPERIPRP, the “shrunken log2 fold change” value is -0.0322.

As to RRIRERPPRLPRPRPRPNRGPRP, the “shrunken log2 fold change” value was -0.00351.

Take RRIRNRPPRLPRPRPRPISKPRP: the “shrunken log2 fold change” value is -0.472.

As for RRIRCRPPRLPRPRPRPHTQPRP, the “shrunken log2 fold change” value is -0.55.

For the sequence RRIRERPPRLPRPRPRPQFSPRP, the “shrunken log2 fold change” value is -0.0998.

As to RRIRKRPPRLPRPRPRPYPSPRP, the “shrunken log2 fold change” value stood at 0.0794.

In the case of RRIRGRPPRLPRPRPRPPYFPRP, the “shrunken log2 fold change” value came to 0.0555.

With RRIRVRPPRLPRPRPRPFPNPRP, the “shrunken log2 fold change” value was determined as 0.038.

On to RRIRSRPPRLPRPRPRPMMVPRP, for which the “shrunken log2 fold change” value was -0.203.

In the case of RRIRSRPPRLPRPRPRPSIAPRP, the “shrunken log2 fold change” value was -0.167.

Regarding RRIRYRPPRLPRPRPRPCLEPRP, the “shrunken log2 fold change” value turned out to be 0.139.

RRIRERPPRLPRPRPRPNCNPRP: the “shrunken log2 fold change” value is -0.848.

As for RRIRTRPPRLPRPRPRPMMYPRP, the “shrunken log2 fold change” value is -0.00147.

In the case of RRIRERPPRLPRPRPRPKWEPRP, the “shrunken log2 fold change” value turned out to be 0.0179.

Consider RRIRARPPRLPRPRPRPWHMPRP, for which the “shrunken log2 fold change” value was -0.361.

Consider RRIRFRPPRLPRPRPRPPQGPRP, for which the “shrunken log2 fold change” value amounted to 0.171.

Consider RRIRQRPPRLPRPRPRPPEAPRP, for which the “shrunken log2 fold change” value stood at 0.243.

As for RRIRRRPPRLPRPRPRPHCPPRP, the “shrunken log2 fold change” value stood at 0.0475.

Regarding RRIRLRPPRLPRPRPRPHINPRP, the “shrunken log2 fold change” value was -0.645.

As for RRIRWRPPRLPRPRPRPNLVPRP, the “shrunken log2 fold change” value is -0.0198.

Consider RRIRGRPPRLPRPRPRPMAEPRP, for which the “shrunken log2 fold change” value was found to be 1.73.

Take RRIRLRPPRLPRPRPRPSGEPRP: the “shrunken log2 fold change” value turned out to be 0.0911.

Turning to RRIRMRPPRLPRPRPRPNYHPRP, the “shrunken log2 fold change” value is -0.525.

Turning to RRIRDRPPRLPRPRPRPHDFPRP, the “shrunken log2 fold change” value was -0.00663.

Take RRIRQRPPRLPRPRPRPFKTPRP: the “shrunken log2 fold change” value was -0.0381.

On to RRIRNRPPRLPRPRPRPHSCPRP, for which the “shrunken log2 fold change” value was -0.00198.

Consider RRIRSRPPRLPRPRPRPSSHPRP, for which the “shrunken log2 fold change” value is -0.0982.

On to RRIRYRPPRLPRPRPRPQEEPRP, for which the “shrunken log2 fold change” value was -0.0969.

Consider RRIRLRPPRLPRPRPRPCAVPRP, for which the “shrunken log2 fold change” value is -0.00495.

RRIRFRPPRLPRPRPRPRVFPRP: the “shrunken log2 fold change” value amounted to 0.232.

In the case of RRIRLRPPRLPRPRPRPQNRPRP, the “shrunken log2 fold change” value was -0.231.

For the sequence RRIRCRPPRLPRPRPRPWCIPRP, the “shrunken log2 fold change” value was -0.308.

For RRIRDRPPRLPRPRPRPPAVPRP, the “shrunken log2 fold change” value turned out to be 0.312.

For RRIRNRPPRLPRPRPRPQRGPRP, the “shrunken log2 fold change” value turned out to be 0.237.

In the case of RRIRHRPPRLPRPRPRPYFAPRP, the “shrunken log2 fold change” value amounted to 0.52.

With RRIRCRPPRLPRPRPRPKMGPRP, the “shrunken log2 fold change” value was 0.0549.

As to RRIRIRPPRLPRPRPRPRAVPRP, the “shrunken log2 fold change” value was 0.314.

Regarding RRIRCRPPRLPRPRPRPKWSPRP, the “shrunken log2 fold change” value was found to be 0.0876.

Consider RRIRIRPPRLPRPRPRPMWDPRP, for which the “shrunken log2 fold change” value is 0.205.

As to RRIRPRPPRLPRPRPRPCFIPRP, the “shrunken log2 fold change” value was -0.735.

As to RRIRTRPPRLPRPRPRPWSHPRP, the “shrunken log2 fold change” value is -0.113.
